From the supplement of paper PMC12764529 come the findings set out here.

± gives the half width of the 95% confidence interval.

Data set [1] can be described thus: folding stability dG unfold (combined trypsin and chymotrypsin); higher = more stable. In short, it runs like this: (§1)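 Unfolding free energy was derived, per protease or combined, by relating Bayesian-fitted K50 values from sequencing counts to a sequence-predicted unfolded-state K50 and a shared folded-state K50. The underlying digests exposed cysteine-free mini-proteins under 80 residues, in a PA-tagged cDNA display construct, to trypsin and chymotrypsin at 11 threefold-diluted concentrations and to a no-protease condition. A filter kept only designs with AlphaFold2 dimer inter-PAE above 15.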

A short description of data set [2]: folding stability dG unfold from chymotrypsin proteolysis; higher = more stable. A digest of the protocol:
as §1

Data set [3] in a line: folding stability dG unfold from trypsin proteolysis; higher = more stable. In short, it runs like this: as §1

In the case of “SAGGSAGGSAGLEVPEGYEVKILDVNPETLPNGERVVSMTVLIIDPDGNPRKVEFRFYAPSAGGSAGGSAGG [r11_570_TrMRF]”, the “folding stability dG unfold” value in data set [1] is 2.27 ± 0.084 kcal/mol; in data set [2], 2.1 ± 0.063 kcal/mol; in data set [3], 2.47 ± 0.17 kcal/mol.

For the sequence “SAGGSAGGSAGLFPGPENIPKVSITPFEVENPLDDYTVTLYRVDFPDLGLSLPAALVSKRSAGGSAGGSAGG [r17_31_TrMRF]”, the “folding stability dG unfold” value in data set [1] was 1.36 ± 0.16 kcal/mol; in data set [2] it was 1.6 ± 0.07 kcal/mol; in data set [3] it was 0.698 ± 0.15 kcal/mol.

As for “SAGGSAGGSAGLKPGDEVLVISIEVETEIKLEEKDGKLTLETETKVKITITRVKLPEGAESAGGSAGGSAGG [r17_186_TrROS_Hall]”, the “folding stability dG unfold” value in data set [1] came out at 3.82 ± 0.25 kcal/mol; in data set [2], 3.01 ± 0.21 kcal/mol; in data set [3], 3.79 ± 0.22 kcal/mol.

As to “SAGGSAGGSAGLKVIEADTLEEVLEAIKEAPKDEPLLLILRNPSTGVDSVLLFDGDKIVLGGSAGGSAGGSA [r18_407_TrMRF]”, the “folding stability dG unfold” value was determined as 0.909 ± 0.06 kcal/mol in data set [1], 0.595 ± 0.09 kcal/mol in data set [2] and 1.09 ± 0.029 kcal/mol in data set [3].

As to “SAGGSAGGSAGLPVLRPLIIPGPSVLRILEVRLREDGSVEVISEETIPLPPPIPSPSELTSAGGSAGGSAGG [r11_843_TrMRF]”, the “folding stability dG unfold” value is 0.905 ± 0.13 kcal/mol in data set [1], 0.994 ± 0.16 kcal/mol in data set [2] and 0.763 ± 0.038 kcal/mol in data set [3].

“SAGGSAGGSAGMEEIEIKFPENGKPLEIYRVPDGSAIIRNPGDGHYFQMDGNKIEIVGPLSAGGSAGGSAGG [r17_476_TrROS]”: the figures for the “folding stability dG unfold” value in data set [1], in data set [2] and in data set [3] were 0.703 ± 0.18 kcal/mol, 0.353 ± 0.13 kcal/mol and 0.861 ± 0.048 kcal/mol, respectively.

Turning to “SAGGSAGGSAGMELTLDEIRALLPAEEIEEVEVVEVDGKLVIRVKRKDGKEVRELVIEKDSAGGSAGGSAGG [r17_374_TrROS_Hall]”, the “folding stability dG unfold” value in data set [1] was found to be 1.73 ± 0.13 kcal/mol; in data set [2], 1.67 ± 0.054 kcal/mol; in data set [3], 1.63 ± 0.065 kcal/mol.

For “SAGGSAGGSAGMEPVYLLVKRTNPATGGREEALLAVPAEDLDAVREALEALPGVEEIEEISAGGSAGGSAGG [r17_438_TrMRF]”, the “folding stability dG unfold” value came to 0.886 ± 0.079 kcal/mol in data set [1], 1.18 ± 0.079 kcal/mol in data set [2] and 0.283 ± 0.05 kcal/mol in data set [3].

On to “SAGGSAGGSAGMETPVLYNVTVTPPDGSTTTYTVPEGLSEEEIRALLNVPASDTITFSPVSAGGSAGGSAGG [r11_340_JUSTAS]”, for which the “folding stability dG unfold” value in data set [1] came out at 1.99 ± 0.033 kcal/mol; in data set [2], 2.02 ± 0.029 kcal/mol; in data set [3] it was 1.87 ± 0.042 kcal/mol.

Consider “SAGGSAGGSAGMEVFKSADGKRLLIRAKNGKVAEFDVETGELKFSKENLSPEDIEIVEVPSAGGSAGGSAGG [r17_174_TrROS_Hall]”, for which the “folding stability dG unfold” value in data set [1] was found to be 0.72 ± 0.22 kcal/mol; in data set [2] it was 1.05 ± 0.14 kcal/mol; in data set [3], 0.385 ± 0.2 kcal/mol.

Turning to “SAGGSAGGSAGMIKKVKISRTSDGTVTRTTEYLETDKPGVPKVVTTEVETVTLAPSEPLFSAGGSAGGSAGG [r11_517_JUSTAS]”, the “folding stability dG unfold” value in data set [1] was 0.507 ± 0.084 kcal/mol; in data set [2], 0.911 ± 0.039 kcal/mol; in data set [3], -1.11 ± 0.51 kcal/mol.

Consider “SAGGSAGGSAGMINPKDVVEVSSSTDPNSSSGTLTVTLKDGKEITISYSSSSEAEAALLGSAGGSAGGSAGG [r11_339_JUSTAS]”, for which the entries for the “folding stability dG unfold” value in data set [1], in data set [2] and in data set [3] were 1.44 ± 0.2 kcal/mol, 1.52 ± 0.12 kcal/mol and 1.1 ± 0.061 kcal/mol, respectively.

As to “SAGGSAGGSAGMIVFTLPDGGLALVLNIEYELEPDEDGNLIIRPRISLSIFPVPADFPILSAGGSAGGSAGG [r17_480_TrMRF]”, the “folding stability dG unfold” value in data set [1] is 4.19 ± 0.12 kcal/mol; in data set [2] it was 4.51 ± 0.068 kcal/mol; in data set [3] it was 3.2 ± 0.09 kcal/mol.

Take “SAGGSAGGSAGMIVVKSKEEIEALKKAGYEIEVKEVTVYDPKTGKKKDKFLVIEIKPKKKSAGGSAGGSAGG [r11_168_TrROS_Hall]”: the “folding stability dG unfold” value in data set [1] amounted to 1.29 ± 0.17 kcal/mol; in data set [2], 1.28 ± 0.06 kcal/mol; in data set [3], 1.25 ± 0.15 kcal/mol.

Take “SAGGSAGGSAGMKITIDGKVAEIEEVEVDGKLYYFIRVEGRLYVFDVETGEIREISPEDLSAGGSAGGSAGG [r11_9_TrROS_Hall]”: the “folding stability dG unfold” value in data set [1] turned out to be 3.91 ± 0.054 kcal/mol; in data set [2] it was 4.16 ± 0.033 kcal/mol; in data set [3] it was 3.14 ± 0.074 kcal/mol.

For “SAGGSAGGSAGMKITVTITTTTTVSVEPPESSAAVGPVVYRQTLTLNLSPEEAAALLKKSSAGGSAGGSAGG [r17_283_JUSTAS]”, the figures for the “folding stability dG unfold” value in data set [1], in data set [2] and in data set [3] were 1.25 ± 0.11 kcal/mol, 1.16 ± 0.14 kcal/mol and 1.17 ± 0.035 kcal/mol, respectively.

As to “SAGGSAGGSAGMKPGEKVLLVKIKIKNENGEEETILVEMSLEELKKLLEEENIEVEILELSAGGSAGGSAGG [r17_313_TrROS_Hall]”, the “folding stability dG unfold” value in data set [1] is 3.03 ± 0.1 kcal/mol; in data set [2], 2.27 ± 0.039 kcal/mol; in data set [3] it was 3.88 ± 0.17 kcal/mol.

“SAGGSAGGSAGMKPGQKEEVKIPIMGMIPVDGRTFMIRFDITVKAPGAIKIELDIIPGFPSAGGSAGGSAGG [r11_551_TrROS]”: the “folding stability dG unfold” value is 4.23 ± 0.21 kcal/mol in data set [1], 4.73 ± 0.29 kcal/mol in data set [2] and 3.26 ± 0.16 kcal/mol in data set [3].

For “SAGGSAGGSAGMKTVLSTKTEPSPEDLTVTTVTLGDKVYTIIYDPKTGKPLKVIPAGEFKSAGGSAGGSAGG [r11_851_JUSTAS]”, the “folding stability dG unfold” value was 0.857 ± 0.12 kcal/mol in data set [1], 1.25 ± 0.093 kcal/mol in data set [2] and -0.0393 ± 0.1 kcal/mol in data set [3].

Turning to “SAGGSAGGSAGMKVTATSLNPASGTVTVKFSDGTTRTFSSVEALKAAIPEGVPIEIAPAVSAGGSAGGSAGG [r17_295_JUSTAS]”, the “folding stability dG unfold” value in data set [1] is 2.36 ± 0.051 kcal/mol; in data set [2] it was 2.297 ± 0.012 kcal/mol; in data set [3], 2.46 ± 0.13 kcal/mol.

On to “SAGGSAGGSAGMKYKATIPLPDGTTLTYESEDPEKAIEEITKETGVPKSKITITPIPELESAGGSAGGSAGG [r17_169_JUSTAS]”, for which the “folding stability dG unfold” value worked out at 0.598 ± 0.097 kcal/mol in data set [1], 0.709 ± 0.096 kcal/mol in data set [2] and 0.33 ± 0.03 kcal/mol in data set [3].

Regarding “SAGGSAGGSAGMLETIELPDGKRVRYDPVTGEWFVELDPELEEEVRERLDPDLPVRFEEVSAGGSAGGSAGG [r11_374_JUSTAS]”, the entries for the “folding stability dG unfold” value in data set [1], in data set [2] and in data set [3] were 1.62 ± 0.057 kcal/mol, 1.54 ± 0.063 kcal/mol and 1.74 ± 0.081 kcal/mol, respectively.

On to “SAGGSAGGSAGMLRVRAVIKRPGGELEELTDVTEEEVLAYAREKGWEIEELKVISPSEKPSAGGSAGGSAGG [r11_283_JUSTAS]”, for which the “folding stability dG unfold” value in data set [1] is 1.64 ± 0.13 kcal/mol; in data set [2] it was 1.91 ± 0.12 kcal/mol; in data set [3] it was 1.23 ± 0.054 kcal/mol.

On to “SAGGSAGGSAGMLVYRTVVTTEVLETETTSFPTPEGPYVTTTTVTVKTTVTVEKLTPELLSAGGSAGGSAGG [r11_24_JUSTAS]”, for which the “folding stability dG unfold” value is 2.75 ± 0.2 kcal/mol in data set [1], 2.61 ± 0.041 kcal/mol in data set [2] and 2.67 ± 0.14 kcal/mol in data set [3].

For the sequence “SAGGSAGGSAGMNPVVIETTETLPNGTVVRTTEIVDPSNPDKVVSTKTEISSVPSNAPLLSAGGSAGGSAGG [r17_299_JUSTAS]”, the “folding stability dG unfold” value in data set [1] stood at 0.222 ± 0.11 kcal/mol; in data set [2], 0.113 ± 0.043 kcal/mol; in data set [3] it was 0.342 ± 0.082 kcal/mol.

With “SAGGSAGGSAGMPIKTLKTTLVSVEKEPPGEGSYITTKSVTEFPDGSKSVTTTTVPASLLSAGGSAGGSAGG [r17_268_JUSTAS]”, the results for the “folding stability dG unfold” value in data set [1], in data set [2] and in data set [3] were -0.576 ± 0.44 kcal/mol, -0.228 ± 0.27 kcal/mol and -0.653 ± 0.59 kcal/mol, respectively.

For the sequence “SAGGSAGGSAGMPLKVTVLSTSPLLESSELVTVKITPPDGSVVVIPSSVSLEEVEKLLLSSAGGSAGGSAGG [r17_353_JUSTAS]”, the results for the “folding stability dG unfold” value in data set [1], in data set [2] and in data set [3] were 0.558 ± 0.051 kcal/mol, 0.05 ± 0.07 kcal/mol and 0.784 ± 0.024 kcal/mol, respectively.

For the sequence “SAGGSAGGSAGMPTLKIKVLVRNEETGEWQEVEIELPEGMTLEELLAALPPEQVERVEPVSAGGSAGGSAGG [r11_386_TrROS_Hall]”, the “folding stability dG unfold” value was 2.85 ± 0.073 kcal/mol in data set [1], 3.07 ± 0.059 kcal/mol in data set [2] and 2.42 ± 0.15 kcal/mol in data set [3].

With “SAGGSAGGSAGMPVITVDVYEDDNTYTITITLSDGTPVVVTVTSPDTPVEEAVAAVIAALSAGGSAGGSAGG [r11_313_JUSTAS]”, the “folding stability dG unfold” value in data set [1] amounted to 3.16 ± 0.16 kcal/mol; in data set [2] it was 2.77 ± 0.16 kcal/mol; in data set [3], 3.45 ± 0.15 kcal/mol.

On to “SAGGSAGGSAGMRIRAEVVEISPPGAVIVLRYEIEFPLPDDEPVRLEFDAVLYIPVPPEASAGGSAGGSAGG [r11_689_TrMRF]”, for which the “folding stability dG unfold” value in data set [1] came to 3.69 ± 0.13 kcal/mol; in data set [2], 4.16 ± 0.098 kcal/mol; in data set [3], 2.63 ± 0.12 kcal/mol.

Turning to “SAGGSAGGSAGMRLVTFTVPGSAISVSTPGGATVVSVEKLPGDLVRVTVEIPEGAPPGLQSAGGSAGGSAGG [r17_48_JUSTAS]”, the “folding stability dG unfold” value in data set [1] worked out at 1.56 ± 0.046 kcal/mol; in data set [2] it was 1.76 ± 0.029 kcal/mol; in data set [3], 1.12 ± 0.013 kcal/mol.

Regarding “SAGGSAGGSAGMSSVAPITTPDGKVAESVTVTEETLPNGEVVTKITTTLPDGTVVTTTLESAGGSAGGSAGG [r11_810_JUSTAS]”, the “folding stability dG unfold” value in data set [1] was 1.3 ± 0.1 kcal/mol; in data set [2] it was 0.997 ± 0.051 kcal/mol; in data set [3], 1.59 ± 0.066 kcal/mol.

As to “SAGGSAGGSAGMSVRVIEGDPALAKKFIEEHPDEIVSVEVTPHPETGTYTYVFVFKGPPKSAGGSAGGSAGG [r17_79_TrMRF]”, the “folding stability dG unfold” value in data set [1] was found to be 2.39 ± 0.091 kcal/mol; in data set [2], 2.44 ± 0.041 kcal/mol; in data set [3] it was 2.33 ± 0.086 kcal/mol.

Turning to “SAGGSAGGSAGMTAKIVERRVLPGDGYLLLVEHPDGSRSAIVVPPELLENLDISDTVEFDSAGGSAGGSAGG [r11_943_TrMRF]”, the “folding stability dG unfold” value in data set [1] amounted to 0.598 ± 0.064 kcal/mol; in data set [2], 0.591 ± 0.026 kcal/mol; in data set [3], 0.576 ± 0.038 kcal/mol.

For “SAGGSAGGSAGMTIKVYDPKTGEKILEIEIDPSLTPEQLKALADELRKKLPPGARIEIVPSAGGSAGGSAGG [r11_1081_TrROS_Hall]”, the entries for the “folding stability dG unfold” value in data set [1], in data set [2] and in data set [3] were 4.38 ± 0.13 kcal/mol, 3.72 ± 0.088 kcal/mol and 4.56 ± 0.2 kcal/mol, respectively.
